First the molecules themselves.
B1: GST-LDIII_(C(198–210)) (GST fused to amino acids 198-210 of genotype III LDAg) (domain or fragment)
chain: FTPPPPGYYWVPG
notes: amino acids 198-210 of the large delta antigen of HDV genotype III, Peru-1 strain, GenBank L22063; Inserted downstream of GST in pGEX-4T1 by EcoRI and SalI; also called 13-amino-acid peptide of genotype III LDAg; source: E. coli BL21 (DE3), purified (glutathione beads); not shown: GST, N-terminal, kept
B3: 6XHis-CHC_((1–107)) (hexahistidine-tagged fragment, amino acids 1 to 107, of human clathrin heavy chain) (domain or fragment, UniProt Q00610 1-107, looked up)
chain: MAQILPIRFQEHLQLQNLGINPANIGFSTLTMESDKFICIREKVGEQAQVVIIDMNDPSNPIRRPISADSAIMNPASKVIALKAGKTLQIFNIEMKSKMKAHTMTDD
notes: human clathrin heavy chain, amino acids 1 to 107, cDNA amplified by RT-PCR and inserted downstream of the hexahistidine tag of pET-15b; also called fragment of CHC; 107-amino-acid peptide of CHC; source: E. coli BL21 (DE3), purified (nickel beads); not shown: His6, N-terminal, kept

For assay [1], the target named is EGFP-LDII (EGFP fused to full-length large hepatitis delta antigen of HDV genotype II, Taiwan-3 strain) (hepatitis delta virus genotype II (Taiwan-3 strain)). Nature of the assay: co-IP; HuH-7 cells transfected with pEGFP-C3 or pEGFP-LD plasmids, TNF-α (30 ng/ml) for 2 h at 24 h post-transfection; lysate precipitated with anti-GFP, blot for CHC; CHC normalised to actin, genotype I set to 1, mean of three experiments.

For assay [2], the target named is EGFP-LDIII (EGFP fused to full-length large hepatitis delta antigen of HDV genotype III, Peru-1 strain) (hepatitis delta virus genotype III (Peru-1 strain)). The assay is described as above.
In assay [3] the target is B3. The assay is described as follows: pull-down; GST or GST-LD_(C(198–210)) on Glutathione Sepharose 4B beads incubated with E. coli produced, purified 6XHis-CHC_((1–107)) for 16 h at 4°C; three washes with 0.05% Tween-20 in PBS; SDS-PAGE, silver stain; mean of three experiments. To be noted: both partners purified.
Assay [4] concerns the target B1. Nature of the assay: pull-down; GST or GST-LD_(C(198–210)) on Glutathione Sepharose 4B beads incubated with HuH-7 cell lysate for 16 h at 4°C; three washes with 0.05% Tween-20 in PBS; blot for CHC; mean of three experiments. To be noted: one partner purified.
Assay [5] deals with T1, GST-LDII_(C(198–210)) (GST fused to amino acids 198-210 of genotype II LDAg) (hepatitis delta virus genotype II …).
T1 construct: amino acids 198-210 of the large delta antigen of HDV genotype II, Taiwan-3 strain, GenBank U19598; Inserted downstream of GST in pGEX-4T1 by EcoRI and SalI; also called 13-amino-acid peptide of genotype II LDAg; source: E. coli BL21 (DE3), purified (glutathione beads); not shown: GST, N-terminal, kept
T1 chain: GPSPPQQRLPLLE
Described as above. The note with it: one partner purified.

Assay [6] addresses B1. Nature of the assay: pull-down; GST or GST-LD_(C(198–210)) on Glutathione Sepharose 4B beads incubated with E. coli produced, purified 6XHis-CHC_((1–107)) for 16 h at 4°C; three washes with 0.05% Tween-20 in PBS; SDS-PAGE, silver stain; mean of three experiments. To be noted: both partners purified.
In assay [7] the target is T1, GST-LDII_(C(198–210)) (GST fused to …). The description is as above. The note with it: both partners purified.

For “clathrin heavy chain (full-length, endogenous in HuH-7 cells) (from UniProt Q00610 1-1675) (natural protein)”, the amount of CHC co-precipitated, ratio to EGFP-LDI (fold of EGFP-LDI) came to 2.6 in assay [1] and 2.2 in assay [2].
For B1, the binding result in assay [3] was “binds”.

B2: clathrin heavy chain (full-length, endogenous in HuH-7 cells) (natural protein, human (endogenous in HuH-7), UniProt Q00610 1-1675, looked up)
chain: MAQILPIRFQEHLQLQNLGINPANIGFSTLTMESDKFICIREKVGEQAQVVIIDMNDPSNPIRRPISADSAIMNPASKVIALKAGKTLQIFNIEMKSKMKAHTMTDDVTFWKWISLNTVALVTDNAVYHWSMEGESQPVKMFDRHSSLAGCQIINYRTDAKQKWLLLTGISAQQNRVVGAMQLYSVDRKVSQPIEGHAASFAQFKMEGNAEESTLFCFAVRGQAGGKLHIIEVGTPPTGNQPFPKKAVDVFFPPEAQNDFPVAMQISEKHDVVFLITKYGYIHLYDLETGTCIYMNRISGETIFVTAPHEATAGIIGVNRKGQVLSVCVEEENIIPYITNVLQNPDLALRMAVRNNLAGAEELFARKFNALFAQGNYSEAAKVAANAPKGILRTPDTIRRFQSVPAQPGQTSPLLQYFGILLDQGQLNKYESLELCRPVLQQGRKQLLEKWLKEDKLECSEELGDLVKSVDPTLALSVYLRANVPNKVIQCFAETGQVQKIVLYAKKVGYTPDWIFLLRNVMRISPDQGQQFAQMLVQDEEPLADITQIVDVFMEYNLIQQCTAFLLDALKNNRPSEGPLQTRLLEMNLMHAPQVADAILGNQMFTHYDRAHIAQLCEKAGLLQRALEHFTDLYDIKRAVVHTHLLNPEWLVNYFGSLSVEDSLECLRAMLSANIRQNLQICVQVASKYHEQLSTQSLIELFESFKSFEGLFYFLGSIVNFSQDPDVHFKYIQAACKTGQIKEVERICRESNCYDPERVKNFLKEAKLTDQLPLIIVCDRFDFVHDLVLYLYRNNLQKYIEIYVQKVNPSRLPVVIGGLLDVDCSEDVIKNLILVVRGQFSTDELVAEVEKRNRLKLLLPWLEARIHEGCEEPATHNALAKIYIDSNNNPERFLRENPYYDSRVVGKYCEKRDPHLACVAYERGQCDLELINVCNENSLFKSLSRYLVRRKDPELWGSVLLESNPYRRPLIDQVVQTALSETQDPEEVSVTVKAFMTADLPNELIELLEKIVLDNSVFSEHRNLQNLLILTAIKADRTRVMEYINRLDNYDAPDIANIAISNELFEEAFAIFRKFDVNTSAVQVLIEHIGNLDRAYEFAERCNEPAVWSQLAKAQLQKGMVKEAIDSYIKADDPSSYMEVVQAANTSGNWEELVKYLQMARKKARESYVETELIFALAKTNRLAELEEFINGPNNAHIQQVGDRCYDEKMYDAAKLLYNNVSNFGRLASTLVHLGEYQAAVDGARKANSTRTWKEVCFACVDGKEFRLAQMCGLHIVVHADELEELINYYQDRGYFEELITMLEAALGLERAHMGMFTELAILYSKFKPQKMREHLELFWSRVNIPKVLRAAEQAHLWAELVFLYDKYEEYDNAIITMMNHPTDAWKEGQFKDIITKVANVELYYRAIQFYLEFKPLLLNDLLMVLSPRLDHTRAVNYFSKVKQLPLVKPYLRSVQNHNNKSVNESLNNLFITEEDYQALRTSIDAYDNFDNISLAQRLEKHELIEFRRIAAYLFKGNNRWKQSVELCKKDSLYKDAMQYASESKDTELAEELLQWFLQEEKRECFGACLFTCYDLLRPDVVLETAWRHNIMDFAMPYFIQVMKEYLTKVDKLDASESLRKEEEQATETQPIVYGQPQLMLTAGPSVAVPPQAPFGYGYTAPPYGQPQPGFGYSM
notes: clathrin heavy chain, endogenous in the human hepatoma cell line HuH-7, detected with anti-clathrin heavy chain; also called CHC; source: endogenous, HuH-7 lysate
In the case of B2, the “normalized amount of CHC bound, ratio to genotype I” value was 1.3 fold of genotype I in assay [4] and 1.6 fold of genotype I in assay [5].
Consider B3, for which the “amount of CHC fragment pulled down, ratio to GST-LDI_(C(198–210))” value in assay [6] was 0.7 fold of GST-LDI_(C(198–210)); in assay [7], 1.4 fold of GST-LDI_(C(198–210)).

Values taken from paper PMC2661055, “The C-terminal sequence of the large hepatitis delta antigen is variable but retains the ability to bind clathrin” (Virology Journal, 2009).
